Data on one molecule can be found in publication PMC6406451.

For this test, the target named is human TRPM8 fused C-terminally to TEV-GFP-His8-tag (human), Q7Z2W7. Description: SDS-PAGE with in-gel GFP fluorescence; crude S. cerevisiae membranes separated by SDS-PAGE, GFP fluorescence of the fusion read in the gel. The note with it: remark: other sources report otherwise.

One may read the stoichiometry N as a count of units in the complex or per binding partner.

B1: human TRPM8 fused C-terminally to TEV-GFP-His8-tag, Q7Z2W7 1-1104 (natural protein)
chain: MSFRAARLSMRNRRNDTLDSTRTLYSSASRSTDLSYSESDLVNFIQANFKKRECVFFTKDSKATENVCKCGYAQSQHMEGTQINQSEKWNYKKHTKEFPTDAFGDIQFETLGKKGKYIRLSCDTDAEILYELLTQHWHLKTPNLVISVTGGAKNFALKPRMRKIFSRLIYIAQSKGAWILTGGTHYGLMKYIGEVVRDNTISRSSEENIVAIGIAAWGMVSNRDTLIRNCDAEGYFLAQYLMDDFTRDPLYILDNNHTHLLLVDNGCHGHPTVEAKLRNQLEKYISERTIQDSNYGGKIPIVCFAQGGGKETLKAINTSIKNKIPCVVVEGSGQIADVIASLVEVEDALTSSAVKEKLVRFLPRTVSRLPEEETESWIKWLKEILECSHLLTVIKMEEAGDEIVSNAISYALYKAFSTSEQDKDNWNGQLKLLLEWNQLDLANDEIFTNDRRWESADLQEVMFTALIKDRPKFVRLFLENGLNLRKFLTHDVLTELFSNHFSTLVYRNLQIAKNSYNDALLTFVWKLVANFRRGFRKEDRNGRDEMDIELHDVSPITRHPLQALFIWAILQNKKELSKVIWEQTRGCTLAALGASKLLKTLAKVKNDINAAGESEELANEYETRAVELFTECYSSDEDLAEQLLVYSCEAWGGSNCLELAVEATDQHFIAQPGVQNFLSKQWYGEISRDTKNWKIILCLFIIPLVGCGFVSFRKKPVDKHKKLLWYYVAFFTSPFVVFSWNVVFYIAFLLLFAYVLLMDFHSVPHPPELVLYSLVFVLFCDEVRQWYVNGVNYFTDLWNVMDTLGLFYFIAGIVFRLHSSNKSSLYSGRVIFCLDYIIFTLRLIHIFTVSRNLGPKIIMLQRMLIDVFFFLFLFAVWMVAFGVARQGILRQNEQRWRWIFRSVIYEPYLAMFGQVPSDVDGTTYDFAHCTFTGNESKPLCVELDEHNLPRFPEWITIPLVCIYMLSTNILLVNLLVAMFGYTVGTVQENNDQVWKFQRYFLVQEYCSRLNIPFPFIVFAYFYMVVKKCFKCCCKEKNMESSVCCFKNEDNETLAWEGVMKENYLVKINTKANDTSEEMRHRFRQLDTKLNDLKGLLKEIANKIK
The molecule B1 had a stoichiometry N of 2.
